Laboratory results reported in patent publication US20250152759A1, “SINGLE-DOMAIN ANTIBODIES AND VARIANTS THEREOF AGAINST MET” (Wisconsin Alumni Research Foundation, priority 2023, published 2025).
“Also recorded” adds a separate entry of the source. Where two headings read alike, the source gives them in different places.

Key:
[1] = system: MET, AKT and ERK phosphorylation; assay: Immunoblot of MET downstream signaling, Detroit 562 and T-47D; format: cell-based, human; settings: 5 nM, positive control
Procedure: To determine if 1E7-Fc by itself was therapeutic and inhibited MET signaling, both cell proliferation assays and western blotting examining MET downstream signaling were evaluated in Detroit […] cell and T-47D as a negative control. The MET tyrosine kinase inhibitor capmatinib was used as a positive control for MET downstream signaling.
Cells were seeded in 10-cm dishes and treated with either control (i.e., PBS), 10 nM, or 100 nM 1E7-Fc when cells reached about 75% confluency, and then cells were harvested 4, 24, or 48 h after treatment. Capmatinib (5 nM) was used as a positive control for inhibition of MET signaling. Cell lysates were prepared as previously described (Könning et al. 2017). Equal amounts of protein were analyzed by sodium dodecyl-sulfate polyacrylamide gel electrophoresis (SDS-PAGE), transferred to polyvinylidene fluoride membranes, and probed with specific primary antibodies. Targets were detected with horseradish peroxidase (HRP)-conjugated secondary antibodies (BioRad) using Enhanced Chemiluminescence western blot substrates (Pierce) and imaged on a LI-COR Odyssey Fc. The specific antibodies are as listed: MET, phospho-MET (Tyr1234/1235), AKT, phosphor-AKT (Ser473), p44/42 MAPK (Erk1/2), phosphor-p44/42 MAPK (Erk1/2) *Thr202/Try204), GAPDH.

[2] = system: MET, AKT and ERK phosphorylation; assay: Western blot of MET signaling, NSCLC and HeLa cell lines; format: cell-based, human; settings: 5 nM, 4 h, positive control
Procedure: To determine if 1E7-Fc by itself was a therapeutic and inhibited MET signaling, as has been seen with other MET antibodies such as onartuzumab and emibetuzumab (De Mello et al. 2020), we performed a cell proliferation assay and Western blot to query effects of 1E7-Fc on cell behavior and downstream signaling pathways. Cell viability was measured using a panel of the same four cell lines. […] In contrast, treatment with the FDA-approved MET TKI, capmatinib, blocked MET, AKT, and ERK phosphorylation, as anticipated (FIG. 4B).
Cells were seeded in 10 cm dishes and treated with either control (PBS), 10 nM, or 100 nM 1E7-Fc when cells were reached about 75% confluency, and then cells were harvested 4 h after treatment. Five nM Capmatinib was used as a positive control. Cell lysates were generated as previously described (SenthilKumar et al. 2020).

human MET [3] = target: T1, human MET (Homo sapiens, UniProt P08581); assay: Dilution ELISA on human MET; format: binding; set-up: Single-domain constructs specific to MET extracellular domain were identified from a naïve VHH antibody phage display library; biotin (biotinylated); settings: for specificity for human versus rhesus macaque and murine MET: ELISA, FIG. 3A
Excerpt: (§1) Next, we evaluated the ability of the three unique VHH clones (1E7, 1A2, and 2G9) to bind murine and rhesus monkey MET by performing ELISA counter screens. […] The three clones were expressed and purified for additional testing to identify a lead VHH. Biolayer interferometry (BLI) was next used to determine the affinity of each VHH domain for MET (FIGS. 3B-D, Table 7). […] The BLI and dilution ELISA data combined determined that 1E7 was the lead clone to for development into a VHH-Fc targeting MET.
(§2) Dilution ELISA: MaxiSorp plates were prepared as described above. 50 μL of biotinylated human cMET, murine cMET, or rhesus macaque cMET was added to the wells. 1E7 monomeric VHH was serial diluted from 1 μM to 15.6 nM in PBS, 1% BSA < and 0.005% Tween20 and added to each well. Wells with protein but no 1E7 VHH were used as a negative control. 1E7 binding was detected, as described above.

human MET [4] = target: T1, human MET; assay: Biolayer interferometry (BLI) of VHH domains on human MET; format: binding; settings: for Ka / Kd: BLI curve fit; for Ka: association rate; for binding affinity to human MET (in words): comparison of the three VHH clones
murine MET = target: T2, murine MET (Mus musculus, UniProt P16056); assay: Dilution ELISA counter screen on murine MET; format: binding
T2 construct: biotin (biotinylated)
Excerpt: as §1, §2

rhesus macaque MET = target: T3, rhesus macaque MET (Macaca mulatta, UniProt F7H1K4); assay: Dilution ELISA counter screen on rhesus macaque MET; format: binding
T3 construct: biotin (biotinylated)
Excerpt: as §1, §2

[5] = dissociation rate, unit not given

T3 sequence (F7H1K4 25-1381): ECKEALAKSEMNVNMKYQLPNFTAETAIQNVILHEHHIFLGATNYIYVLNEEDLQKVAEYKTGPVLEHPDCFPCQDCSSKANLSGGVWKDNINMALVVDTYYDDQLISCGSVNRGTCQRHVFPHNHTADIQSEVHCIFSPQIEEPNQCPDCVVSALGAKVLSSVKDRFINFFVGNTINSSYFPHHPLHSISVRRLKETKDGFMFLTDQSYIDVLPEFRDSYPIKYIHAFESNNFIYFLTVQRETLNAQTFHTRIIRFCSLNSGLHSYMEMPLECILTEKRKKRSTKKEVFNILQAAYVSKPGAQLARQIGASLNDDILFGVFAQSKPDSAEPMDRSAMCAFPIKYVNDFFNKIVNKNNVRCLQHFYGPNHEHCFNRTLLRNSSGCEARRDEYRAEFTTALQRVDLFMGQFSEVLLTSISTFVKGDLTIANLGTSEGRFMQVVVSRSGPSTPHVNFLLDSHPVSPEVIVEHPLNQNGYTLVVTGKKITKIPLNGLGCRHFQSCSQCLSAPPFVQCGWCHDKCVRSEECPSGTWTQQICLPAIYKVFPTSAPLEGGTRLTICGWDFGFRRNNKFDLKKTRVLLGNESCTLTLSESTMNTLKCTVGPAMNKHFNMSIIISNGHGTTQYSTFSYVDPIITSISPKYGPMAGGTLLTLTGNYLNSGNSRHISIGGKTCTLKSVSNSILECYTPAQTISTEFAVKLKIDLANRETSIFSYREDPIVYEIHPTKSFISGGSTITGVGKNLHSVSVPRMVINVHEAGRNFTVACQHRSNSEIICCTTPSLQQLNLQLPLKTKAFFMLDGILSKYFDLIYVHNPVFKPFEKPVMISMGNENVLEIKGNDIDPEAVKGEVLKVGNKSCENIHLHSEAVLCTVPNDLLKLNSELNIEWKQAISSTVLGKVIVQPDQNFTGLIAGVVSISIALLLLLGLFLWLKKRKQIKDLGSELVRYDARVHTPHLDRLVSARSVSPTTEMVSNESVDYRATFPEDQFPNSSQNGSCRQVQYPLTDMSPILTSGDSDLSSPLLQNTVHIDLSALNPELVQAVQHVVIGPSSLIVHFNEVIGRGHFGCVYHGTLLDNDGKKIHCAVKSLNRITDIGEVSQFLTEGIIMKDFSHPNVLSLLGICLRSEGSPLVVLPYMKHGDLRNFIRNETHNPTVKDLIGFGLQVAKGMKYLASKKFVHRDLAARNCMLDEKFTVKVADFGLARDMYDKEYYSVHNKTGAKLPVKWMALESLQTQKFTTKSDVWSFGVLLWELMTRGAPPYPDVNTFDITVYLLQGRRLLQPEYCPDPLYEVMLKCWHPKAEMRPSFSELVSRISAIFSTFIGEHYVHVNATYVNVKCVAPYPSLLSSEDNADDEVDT
T2 sequence (P16056 25-1379): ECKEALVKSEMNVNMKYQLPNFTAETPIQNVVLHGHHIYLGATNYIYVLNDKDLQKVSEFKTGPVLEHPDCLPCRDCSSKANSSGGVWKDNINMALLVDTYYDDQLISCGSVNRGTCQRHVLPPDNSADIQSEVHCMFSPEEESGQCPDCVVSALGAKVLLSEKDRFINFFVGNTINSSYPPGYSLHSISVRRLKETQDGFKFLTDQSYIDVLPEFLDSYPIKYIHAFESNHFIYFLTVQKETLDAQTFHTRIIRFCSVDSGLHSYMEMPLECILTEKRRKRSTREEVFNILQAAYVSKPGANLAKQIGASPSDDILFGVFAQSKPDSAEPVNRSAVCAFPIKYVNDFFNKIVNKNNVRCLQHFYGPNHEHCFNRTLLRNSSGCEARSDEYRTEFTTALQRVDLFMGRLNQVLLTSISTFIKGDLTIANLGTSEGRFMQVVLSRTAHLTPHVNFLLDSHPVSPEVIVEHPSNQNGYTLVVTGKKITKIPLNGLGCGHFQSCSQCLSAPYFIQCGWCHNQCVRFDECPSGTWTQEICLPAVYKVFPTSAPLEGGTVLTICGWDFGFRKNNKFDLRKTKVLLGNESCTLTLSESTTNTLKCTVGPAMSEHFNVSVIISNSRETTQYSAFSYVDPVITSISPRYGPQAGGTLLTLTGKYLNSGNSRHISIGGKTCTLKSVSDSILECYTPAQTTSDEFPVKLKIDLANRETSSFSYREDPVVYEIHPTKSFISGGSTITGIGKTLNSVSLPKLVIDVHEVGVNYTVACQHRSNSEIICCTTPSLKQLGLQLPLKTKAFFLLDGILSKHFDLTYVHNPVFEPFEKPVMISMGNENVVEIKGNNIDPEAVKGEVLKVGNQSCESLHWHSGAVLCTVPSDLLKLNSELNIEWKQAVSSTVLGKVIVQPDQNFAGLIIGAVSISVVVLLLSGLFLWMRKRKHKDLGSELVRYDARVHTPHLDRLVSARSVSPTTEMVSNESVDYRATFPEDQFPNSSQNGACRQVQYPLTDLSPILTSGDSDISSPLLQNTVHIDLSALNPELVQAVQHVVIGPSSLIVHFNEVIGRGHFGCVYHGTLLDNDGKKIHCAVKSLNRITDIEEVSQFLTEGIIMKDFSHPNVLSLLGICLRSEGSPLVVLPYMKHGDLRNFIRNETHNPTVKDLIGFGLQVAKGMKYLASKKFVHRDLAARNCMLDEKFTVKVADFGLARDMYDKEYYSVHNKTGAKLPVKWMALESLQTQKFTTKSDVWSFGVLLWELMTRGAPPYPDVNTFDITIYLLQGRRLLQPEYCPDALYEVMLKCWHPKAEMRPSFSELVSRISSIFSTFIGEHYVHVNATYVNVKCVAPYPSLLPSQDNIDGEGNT
T1 sequence (P08581 25-932 limits assumed): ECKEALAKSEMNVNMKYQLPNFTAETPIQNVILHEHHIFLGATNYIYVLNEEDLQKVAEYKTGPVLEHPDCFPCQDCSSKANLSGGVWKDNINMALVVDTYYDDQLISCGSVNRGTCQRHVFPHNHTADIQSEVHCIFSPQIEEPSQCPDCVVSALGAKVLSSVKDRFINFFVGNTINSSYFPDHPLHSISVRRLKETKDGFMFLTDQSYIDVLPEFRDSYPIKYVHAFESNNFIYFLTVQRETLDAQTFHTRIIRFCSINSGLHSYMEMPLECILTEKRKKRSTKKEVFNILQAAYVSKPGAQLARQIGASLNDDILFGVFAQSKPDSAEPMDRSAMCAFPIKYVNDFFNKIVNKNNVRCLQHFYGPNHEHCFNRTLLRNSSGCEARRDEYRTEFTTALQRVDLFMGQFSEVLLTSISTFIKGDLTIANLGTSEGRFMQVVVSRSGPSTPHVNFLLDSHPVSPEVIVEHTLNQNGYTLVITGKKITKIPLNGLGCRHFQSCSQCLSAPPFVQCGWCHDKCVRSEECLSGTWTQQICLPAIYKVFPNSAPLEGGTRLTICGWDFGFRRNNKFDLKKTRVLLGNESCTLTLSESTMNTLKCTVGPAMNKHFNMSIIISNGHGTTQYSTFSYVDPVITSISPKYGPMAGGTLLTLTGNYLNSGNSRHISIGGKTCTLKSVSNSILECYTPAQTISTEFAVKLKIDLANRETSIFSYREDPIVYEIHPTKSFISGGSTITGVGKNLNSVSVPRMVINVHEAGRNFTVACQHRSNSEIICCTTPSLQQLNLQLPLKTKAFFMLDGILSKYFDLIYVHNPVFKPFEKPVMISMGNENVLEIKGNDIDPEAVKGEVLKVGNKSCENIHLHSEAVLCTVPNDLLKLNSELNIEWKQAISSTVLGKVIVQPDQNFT

Molecule	effect on phosphorylation of MET [1]	effect on MET, AKT and ERK phosphorylation [2]	specificity for human versus rhesus macaque and murine MET (human MET [3])	Ka (human MET [4]; unit not given)	Kd (human MET [4]; [5])	Kd (human MET [4]; nM, read-out: KD)	binding affinity to human MET (in words) (human MET [4])	binding to murine MET (murine MET)	binding to rhesus macaque MET (rhesus macaque MET)	ELISA signal on human MET (human MET [3]; dilution ELISA, unpurified VHH serially diluted)	kon and koff compared to the other clones (human MET [4]; BLI)
CNC(=O)c1ccc(-c2cnc3ncc(Cc4ccc5ncccc5c4)n3n2)cc1F [capmatinib, reference compound]	effectively blocked	blocked	–	–	–	–	–	–	–	–	–
2G9: anti-MET camelid VHH single-domain antibody from phage display, amino acid sequence SEQ ID NO:26 (protein) VHH: EVQLVESGGALVQPGGSLRLSCAASGFTFGAYDMVWVRHATGKGPEWISFISNGGEEVSYASSVKDRFTISRDNAQNMLYLQMNNLKPEDTAVYYCARSTDVSPGLSSWWTYEYDVWGQGTLVTVSS	–	–	did not show clear specificity	1.000 × 10^4	1.500 × 10^−3	159 nM	high affinity; also recorded: weaker binding affinities	modest cross-reactivity	modest cross-reactivity	–	–
1E7: anti-MET camelid VHH single-domain antibody from phage display, amino acid sequence SEQ ID NO:22 (protein) VHH: EVQLVESGGGLVQPGGSLRLSCEASGFNFERYDMSWVRQAPGKGPEWVSRLNSFGRSTYYLDSVKGRFTVSRDNAQNMLYLQMNNLKPEDTAVYYCARSTDVSPGLSSWWTYEYDVWGQGTQVTVSS	–	–	–	1.445 × 10^5	4.045 × 10^−2	27 nM	high affinity; also recorded: highest binding affinity	modest cross-reactivity; also recorded: minimal binding	modest cross-reactivity; also recorded: minimal binding	strongest MET signal; also recorded: saturating ELISA signals	highest kon and the lowest koff
1A2: anti-MET camelid VHH single-domain antibody from phage display, amino acid sequence SEQ ID NO:24 (protein) VHH: EAQLVESGGGLVQPGGSLRLSCEASGFNFERYDMSWVRQAPGKGPEWVSRLNSFGRSTYYLDSVKGRFTVSRDTAKSTFYLQMNNLKPEDAGVYYCARSTDVSPGLSSWWTYEYDVWGQGTQVTVSS	–	–	did not show clear specificity	1.865 × 10^5	2.869 × 10^−2	43 nM	high affinity; also recorded: weaker binding affinities	modest cross-reactivity	modest cross-reactivity	–	–
